Source: US7049398B1, “Melanocortin metallopeptide constructs, combinatorial libraries and applications” (Palatin Technologies, Inc., priority 1999, dated 2006)
[ ]: non-standard residue; d: D form. The star is where a group is joined. Hydrocinnamoyl = O=C(CCc1ccccc1)*; Nle = CCCC[C@H](N)C(=O)O

Assays:
[1] = target: T1, MC1-R (B-16 mouse melanoma cells) (Mus musculus, UniProt Q01727); experiment: Competitive inhibition binding assay, 125I-NDP-alpha-MSH, B-16 mouse melanoma cell membranes; details: 0.4 nM 125I-NDP-alpha-MSH
T1 construct: B-16 mouse melanoma cells (containing MC1-R); endogenous in cells; host or cells: B-16 mouse melanoma cells
T1 sequence (Q01727 whole entry): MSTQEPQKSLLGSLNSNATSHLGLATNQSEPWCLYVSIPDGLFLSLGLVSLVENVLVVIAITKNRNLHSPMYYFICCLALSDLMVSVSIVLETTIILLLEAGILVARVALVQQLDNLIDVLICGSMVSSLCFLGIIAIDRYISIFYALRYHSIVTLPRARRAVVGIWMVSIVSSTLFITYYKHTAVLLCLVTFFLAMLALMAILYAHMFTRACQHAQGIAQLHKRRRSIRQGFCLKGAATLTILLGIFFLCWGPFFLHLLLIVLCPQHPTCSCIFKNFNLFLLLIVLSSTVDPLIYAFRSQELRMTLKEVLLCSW
Method: (§1) Representative Peptides of this Invention. Representative peptides of this invention were made using library and synthesis methods described herein, and selected peptides were tested using a binding assay. […] The peptides were synthesized using conventional peptide synthesis methods, and were complexed with rhenium using the methods described herein.
(§2) The competitive inhibition binding assay was conducted using membranes prepared from hMC4-R and B-16 mouse melanoma cells (containing MC1-R) using 0.4 nM ^125I-NDP-alpha-MSH (New England Nuclear, Boston, Mass., USA) in 50 mM HEPES buffer containing 1 mM MgCl2, 2 mM CaCl2, and 5 mM KCl, at pH 7.2. The assay tube also contained a chosen concentration of the test peptide of this invention, complexed to a rhenium metal ion as indicated, for determining its efficacy in inhibiting the binding of ^125I-NDP-alpha-MSH to its receptor. Non-specific binding was measured by complete inhibition of binding of ^125I-NDP-alpha-MSH in the assay with the presence of 1 μM alpha-MSH. Incubation was for 90 minutes at room temperature, after which the assay mixture was filtered and the membranes washed three times with ice cold buffer. The filter was dried and counted in a gamma counter for remaining radioactivity bound to the membranes. 100% specific binding was defined as the difference in radioactivity (cpm) bound to cell membranes in the absence and presence of 1 μM alpha-MSH. The cpm obtained in presence of test compounds were normalized with respect to 100% specific binding to determine the percent inhibition of ^125I-NDP-alpha MSH binding. […]

[2] = system: Human MC4-R or B-16 cells; experiment: cAMP stimulation assay in absence and presence of alpha-MSH; format: cell-based, human; mouse; details: 1 h 37° C., 0.2 mM IBMX
Method: For selected peptides of this invention, a cAMP assay was also performed. Human MC4-R or B-16 cells were grown to confluence in 96 well plates (plating approximately 250,000 cells per well). Identical sets of cells in triplicate were treated with 0.2 mM isobutylmethylxanthine (IBMX) and the chosen concentration of the rhenium metal ion-complexed peptide and the rhenium metal ion-complexed peptide in the presence of 20 nM alpha-MSH. Cells similarly treated but with only 20 nM alpha-MSH served as positive control. A buffer blank, as a negative control, was also included. Incubation was for one hour at 37° C. after which the medium was aspirated and the cells extarted with 150 microliters of HCl. Total cAMP accumulated in 100 microliters of this solution was quantitated using a commercially available low pH cAMP assay kit (R&D Systems) by the procedure specified by the kit supplier. […] The rhenium metal ion-complexed peptide showing cAMP accumulation in the same range as or higher than the positive control (buffer blank in the presence of alpha-MSH) are considered to be agonist ligands. The rhenium metal ion-complexed peptide showing accumulation in the same range as the negative control (buffer blank in the absence of alpha-MSH) are ineffective at the test concentration if the result is similar to the positive control where alpha-MSH is also present in the assay. The rhenium metal ion-complexed peptide showing accumulation in the same range as the negative control are considered to be antagonists if there is inhibition in cAMP when alpha-MSH is present in the assay. Values above the positive control are due to potent agonism, experimental variance or synergistic agonistic effects of rhenium metal ion-complexed peptide and alpha-MSH. […]

[3] = target: T2, hMC4-R (Homo sapiens, UniProt P32245); experiment: Competitive inhibition binding assay, 125I-NDP-alpha-MSH, hMC4-R membranes; details: 0.4 nM 125I-NDP-alpha-MSH
T2 construct: expressed in transfected cells; host or cells: 293 cells
T2 sequence (P32245 whole entry): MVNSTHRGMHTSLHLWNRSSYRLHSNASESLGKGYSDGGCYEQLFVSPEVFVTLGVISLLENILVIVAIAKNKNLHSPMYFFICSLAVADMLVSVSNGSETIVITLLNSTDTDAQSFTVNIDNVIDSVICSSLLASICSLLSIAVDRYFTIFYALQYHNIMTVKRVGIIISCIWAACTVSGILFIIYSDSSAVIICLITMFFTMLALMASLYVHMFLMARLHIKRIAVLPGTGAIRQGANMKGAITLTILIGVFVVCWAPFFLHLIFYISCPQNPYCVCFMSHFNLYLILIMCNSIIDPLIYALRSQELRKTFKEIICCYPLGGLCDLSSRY
Method: as §1, §2

[4] = Conc. cut off 10 μM, B-16 mouse melanoma cell membranes
[5] = 10 μM test compound + 20 nM alpha-MSH
[6] = Conc. cut off 10 μM, hMC4-R membranes
[7] = Conc. cut off 1 μM test peptide
[8] = 1 μM test compound + 20 nM alpha-MSH
[9] = Conc. cut off 1 μM, B-16 mouse melanoma cell membranes
[10] = Conc. cut off 1 μM, hMC4-R membranes

% Inhibition MC1-R (B-16) [1, 7] [%]	% Inhibition MC4-R [3, 7] [%]	Substance	cAMP Accumulation, Presence of α-MSH [2, 8] [pmol/mL]	cAMP Accumulation, Absence of α-MSH ([2]; 1 μM test compound) [pmol/mL]	further results
		PL-1346: metallopeptide of Table 1 (Hydrocinnamoyl-HRCW-NH2; also: ReO[V] metal complex)			% Inhibition MC1-R (B-16) [1, 4]: 86%; cAMP Accumulation, Presence of α-MSH [2, 5]: 76 pmol/mL; cAMP Accumulation, Absence of α-MSH ([2]; 10 μM test compound): 3 pmol/mL; % Inhibition MC4-R [3, 6]: 77%
27	2	PL-1842: metallopeptide of Table 1 (Ac-[Nle]AHRFWC-NH2; also: ReO[V] complex)	76	25	
		PL-1265: metallopeptide of Table 1 (Ac-EHGRWC-NH2; also: ReO[V] metal complex)	127	3	% Inhibition MC1-R (B-16) [1, 9]: 34%; % Inhibition MC4-R [3, 10]: 67%
		PL-838: metallopeptide of Table 1 (Ac-HFRCW-NH2; also: ReO[V] metal complex)			% Inhibition MC1-R (B-16) [1, 4]: 35%; cAMP Accumulation, Presence of α-MSH [2, 5]: 53 pmol/mL; cAMP Accumulation, Absence of α-MSH ([2]; 10 μM test compound): 2 pmol/mL; % Inhibition MC4-R [3, 6]: 0%
		PL-1334 (Hydrocinnamoyl-[Nle]WCR-NH2; also: ReO[V] metal complex)			% Inhibition MC1-R (B-16) [1, 9]: 26%; % Inhibition MC4-R [3, 10]: 12%
19	30	PL-1509 (Ac-RFCFNAF-NH2; also: ReO[V] metal complex)			
78	70	PL-1751: metallopeptide of Table 1 (Ac-HXRWC-NH2; not fully specified (residue 2); printed as Ac-L-His-L-(N-2′naphthalene)Phe-L-Arg-L-Trp-L-Cys-NH2; also: ReO[V] complex)	96	71	
